The source of these data is the supplement of paper PMC6755084.

B1: F1*; the commonest letter at each place (parent)
chain: GAGACCGCAACTGAAAAGTTGTTATCACTTGTCGTAAGACACTTTGGATGGGTTGAAGTTCTGCACGTAGAAGCAAAAGGC

Variants of B1 are the subject of this data set. The data set can be described thus: fraction ligated after 30 min (ligated reads / total reads); higher = more ligase activity. Particulars: with F1*sub RNA substrate (template-directed ligation), 42 °C. Summed up: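 The ligase ribozyme variants were produced by PCR amplification of oligo-pool templates, T7 transcription and purification on gel. Their ligated and unligated forms were gel-separated, then reverse transcribed with barcoded primers before MiSeq sequencing. Core bases were filtered at a quality of ≥20, and fraction ligated per variant was ligated reads over total reads.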
On to T29A G47A, for which the fraction ligated is 0.804.
Consider G50T A56C, for which the fraction ligated is 0.0586.
The value for A27T G50A was 0.412; that for T45G G55A was 0.045.
With T45G G55T, the fraction ligated was determined as 0.0383.
For the variant T35G T44C, the fraction ligated amounted to 0.854.
In the case of C40G T45A, the fraction ligated was 0.688.
The value for T23G A24T was 0.794; that for G31C G46A was 0.797.
As for C28G A57G, the fraction ligated came out at 0.791.
The value for C28A A56C was 0.718; that for C28T A36C was 0.801.
For the variant C28G C40A, the fraction ligated came to 0.791.
Turning to T30G A36T, the fraction ligated is 0.841.
In the case of T32A A56T, the fraction ligated turned out to be 0.82.
As for T44C T45G, the fraction ligated was determined as 0.191.
For G31T G46A, the fraction ligated turned out to be 0.79.
Consider T32C C42G, for which the fraction ligated came to 0.806.
Under C33A A36C stands 0.844.
Turning to T45A A48G, the fraction ligated was 0.261.
In the case of C26G A48T, the fraction ligated came to 0.00571.
T23C T30G: the fraction ligated worked out at 0.833.
Take C33G G34T: the fraction ligated stood at 0.856.
For the variant T35A A57G, the fraction ligated is 0.847.
Under A48T A56T stands 0.0621; under C33A G46C, 0.797; under A41G G47T, 0.354.
For T29G A36C, the fraction ligated worked out at 0.825.
Turning to A41T G50T, the fraction ligated was 0.715.
Under T29A G38C stands 0.851.
For A24T A48C, the fraction ligated is 0.499.
For C42A G50T, the fraction ligated amounted to 0.658.
Turning to T32G T49A, the fraction ligated came to 0.56.
Under A37T stands 0.853; under T25C A57T, 0.682.
The value for C28A T29G was 0.814; that for C26T T49A was 0.392; that for G34T G46A was 0.823.
C26G G31T: the fraction ligated worked out at 0.0375.
The value for T35C T49G was 0.804.
Take A37C T44C: the fraction ligated worked out at 0.843.
For the variant A36C A57G, the fraction ligated worked out at 0.816.
Consider T30A G31C, for which the fraction ligated turned out to be 0.784.
The value for T35A T44A was 0.838; that for T29G G55A was 0.79.
Regarding T32G C40G, the fraction ligated worked out at 0.813.
Turning to A27G G38A, the fraction ligated was found to be 0.83.
Consider C40T G47C, for which the fraction ligated was determined as 0.163.
Regarding A39G T43C, the fraction ligated was determined as 0.814.
Take G34A C42G: the fraction ligated stood at 0.85.
Take T23G G46C: the fraction ligated is 0.803.
On to T29A T49A, for which the fraction ligated amounted to 0.784.
Under A48C A56C stands 0.185; under A24G C28T, 0.743; under G34C T45C, 0.733.
Turning to G46C A48G, the fraction ligated was 0.191.
On to A41T G47C, for which the fraction ligated is 0.211.
For C40A A41G, the fraction ligated amounted to 0.766.
Regarding G34C A41C, the fraction ligated was found to be 0.808.
Consider G31T A36C, for which the fraction ligated amounted to 0.769.
Take A24G T35A: the fraction ligated is 0.786.
As to T35A A39G, the fraction ligated worked out at 0.851.
In the case of G46T A56T, the fraction ligated was found to be 0.237.
Under A39C A57T stands 0.798; under A36G T43A, 0.823; under A39G T45A, 0.784.
Under A37C G55T stands 0.845; under C33G A39G, 0.836; under G55C A56T A57C, 0.00477.
Consider G55C A56T A57G, for which the fraction ligated stood at 0.0294.
For the variant C28A A39C, the fraction ligated came out at 0.802.
Turning to G31A A57G, the fraction ligated was 0.851.
T44A A57T: the fraction ligated was determined as 0.815.
With A36G A39C, the fraction ligated is 0.791.
In the case of C33A A37T, the fraction ligated was found to be 0.849.
Turning to G31C G34T, the fraction ligated stood at 0.778.
T45A G47C: the fraction ligated was determined as 0.217.
Consider T23G G50C, for which the fraction ligated was 0.401.
As to G34A C40A, the fraction ligated is 0.817.
On to T44G A56G, for which the fraction ligated came out at 0.752.
The value for T44G A56T was 0.809.
Under T45C A57G stands 0.812; under C33A G50A, 0.343.
